# Reference: patent US20180177842A1 (CANIMGUIDE THERAPEUTICS, published 2018)
# Ends that are not written are not given here.
# T1: His-tagged P3028 (human, also: His tag, length and end not given here)
# T1 construct: in solution at 0.5 ug/mL, detected with mouse anti-His antibody and rabbit anti-mouse peroxidase (rampo); also called PGE73; His-tag-P3028; not shown: His tag
# T1 peptide: VFDEFKPLVEEPQNLIK
# Target: Artificial Cell Surface (ACS): biotinylated cell surface proteins of human PBMCs bound to a streptavidin column (human)
# Experiment: adsorption on ACS column, MALDI-TOF ms
row,Percent Absorbed [%],Binder
1,41,"FQNALLVR [Trypsin-generated albumin fragment, SEQ ID NO 199]"
2,42,"RPCFSALEVDETYVPK [Trypsin-generated albumin fragment, SEQ ID NO 198]"
3,32,"CCAAADPHECYAK [Trypsin-generated albumin fragment, SEQ ID NO 204]"
4,23,"AVMDDFAAFVEK [Trypsin-generated albumin fragment, SEQ ID NO 208]"
5,35,"LCTVATLR [Trypsin-generated albumin fragment, SEQ ID NO 202]"
6,29,"AAFTECCQAADK [Trypsin-generated albumin fragment, SEQ ID NO 205]"
7,64,"KVPQVSTPTLVEVSR [Trypsin-generated albumin fragment, SEQ ID NO 195]"
8,25,"QEPERNECFLQHK (not fully specified) [Trypsin-generated albumin fragment, SEQ ID NO 207]"
9,34,"YLYEIAR [Trypsin-generated albumin fragment, SEQ ID NO 203]"
10,36,"SLHTLFGDK [Trypsin-generated albumin fragment, SEQ ID NO 200]"
11,36,"LKECCEKPLLEK [Trypsin-generated albumin fragment, SEQ ID NO 201]"
12,60,"VFDEFKPLVEEPQNLIK [Trypsin-generated albumin fragment, SEQ ID NO 196]"
13,71,"KYLYEIAR [Trypsin-generated albumin fragment, SEQ ID NO 194]"
14,26,"CCTESLVNR [Trypsin-generated albumin fragment, SEQ ID NO 206]"
15,59,"VPQVSTPTLVEVSR [Trypsin-generated albumin fragment, SEQ ID NO 197]"

# Target: T1, His-tagged P3028
# Experiment: PEPSCAN ELISA, peptide on chip;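 further: binding detected by peroxidase ELISA with ABTS, OD405 colour imaged by CCD camera before and after staining, raw OD405 reported as rampo units, air-bubble wells scored 0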
# Procedure: After washing, the peroxidase substrate 2,2′-azine-di-3-ethylbenzthiazoline sulfonate (ABTS) and 2 μL of 3% H2O2 were added. The binding capacity of the mAb was measured as a color development at 405 nm (optical density, OD405). The color development was quantified with a charge-coupled device (CCD)—camera and an image processing system.
# The OD405-values obtained by a CCD-camera was considered as raw data values (“rampo values,” “rampo units,” or “rampo scores”). […] First the CCD-camera made a picture of the card before peroxidase coloring and then again a picture after the peroxidase coloring. […] These values were copied into an excel file and labeled as a raw data file. […] Sometimes a well can contain an air-bubble resulting in a false-positive value. If manual inspection of the cards detect an air-bubble the value are set to 0 for well.
row,RAMPO Score [rampo units],Binder
1,260,KKLDTFFVKLSLFTER [SEQ ID NO 391]
2,360,KKLDTFFVKLSLFLER [SEQ ID NO 380]
3,311,KKLDTFFVKLSLFTEN [SEQ ID NO 390]
4,311,KKLDTFFVKLSLFTEY [SEQ ID NO 393]
5,501,KKLDTFFVKLSLFMER [SEQ ID NO 381]
6,599,KKLDTFFVKLSLFNER [SEQ ID NO 382]
7,380,KKLDTFFVKLSLFVER [SEQ ID NO 385]
8,291,KKLDTFFVKLSLFTEK [SEQ ID NO 389]
9,369,KKLDTFFVKLSLFSER [SEQ ID NO 384]
10,374,KKLDTFFVKLSLFWER [SEQ ID NO 386]
11,292,KKLDTFFVKLSLFTET [SEQ ID NO 392]
12,404,KKLDTFFVKLSLFTDR [SEQ ID NO 387]
13,551,KKLDTFFVKLSLFPER [SEQ ID NO 383]
14,297,KKLDTFFVKLSLFTEF [SEQ ID NO 388]
